PMC6171324

B1: human FSTL 1 (hFSTL1): N180Q (Mut-1) (protein)
parent chain: MWKRWLALALALVAVAWVRAEEELRSKSKICANVFCGAGRECAVTEKGEPTCLCIEQCKPHKRPVCGSNGKTYLNHCELHRDACLTGSKIQVDYDGHCKEKKSVSPSASPVVCYQSNRDELRRRIIQWLEAEIIPDGWFSKGSNYSEILDKYFKNFDNGDSRLDSSEFLKFVEQNETAINITTYPDQENNKLLRGLCVDALIELSDENADWKLSFQEFLKCLNPSFNPPEKKCALEDETYADGAETEVDCNRCVCACGNWVCTAMTCDGKNQKGAQTQTEEEMTRYVQELQKHQETAEKTKRVSTKEI
B2: human FSTL 1 (hFSTL1): N144Q (Mut-3) (protein)
parent chain: B1 parent chain
B3: human FSTL 1 (hFSTL1): N175Q (Mut-2) (protein)
parent chain: B1 parent chain
B4: human FSTL 1 (hFSTL1): Mut-(1–3) (protein)
parent chain: B1 parent chain

Key:
[1] = echography, %EF and %FS, 28 days post-MI; settings: glycan lost; control: Luc modRNA (hFSTL1 modRNA not significant)
[2] = weighing, 28 days post-MI; settings: glycan lost; control: Luc modRNA
[3] = CD45 staining 7 days post-MI; settings: glycan lost; control: hFSTL1 modRNA
[4] = CM size in heart sections 7 days post-MI; settings: glycan lost; control: control constructs
[5] = CD31 staining, left ventricle, 28 days post-MI; settings: glycan lost; control: Luc modRNA
[6] = Masson trichrome staining, 28 days post-MI; settings: glycan lost; control: Luc modRNA (hFSTL1 modRNA not significant)
[7] = proliferation markers in non-CMs 7 days post-MI; settings: glycan lost; control: hFSTL1 modRNA

Protein | other: cardiac function post-MI [1] | other: heart weight-to-body weight ratio [2] | other: leukocyte infiltration in heart [3] | other: CM size / hypertrophy [4] | other: capillary density post-MI [5] | other: scar size post-MI [6] | other: non-CM proliferation in heart [7]
B1 | increases | increases | no change | no change | increases | decreases | no change
B2 |  |  | no change |  |  |  | no change
B3 |  |  | no change |  |  |  | no change
B4 | no change |  | no change | no change |  | no change | no change
